Tests used:
[1] = system: 4T1-luc2 murine breast cancer cells; test: Biodistribution imaging of fluorescently labelled nanoparticles in 4T1-luc2 tumour bearing mice; type: in vivo
Description: The near-infrared (NIR) lipophilic fluorescent dye DiR (ThermoFisher) was incorporated into the lipid bilayer of naked nanoparticles, nanoparticles coated with HEL4 (isotype) and nanoparticles coated with variable domains for binding to anti-P2X7R (P2X7-binding domain-coated nanoparticles, or “BIL03s-coated”). Female Balb/c mice were inoculated orthotopically (4th mammary fat pad) with 4T1-luc2 murine breast cancer cells. A 50 μL dose of nanoparticles was injected intravenously at study day 0 and near-infrared (NIR) imaging was performed at 6, 12, 24, 48 and 96 […]. At termination, excised liver, spleen and tumour NIR imaging was performed and bioluminescence imaging was performed on tumour tissues.

[2] = system: 4T1 murine breast tumour; test: Efficacy of gemcitabine liposome nanoparticles in the 4T1 murine breast tumour model; type: in vivo, mice; settings: 0.2 mg gemcitabine, intravenously 3 times a week; versus HEL4-coated nanoparticles containing gemcitabine; P=0.0456
Description: This study aimed to determine the efficacy of P2X7-binding domain-coated nanoparticles (i.e., “BIL03s-coated”) and HEL4-coated nanoparticles to deliver the cytotoxic agent gemcitabine to tumours in the 4T1 murine breast tumour model.
Nanoparticles were administered intravenously, 3 times a week. Nanoparticles contained either 0.2 mg gemcitabine or PBS buffer (control).
Tumour volume was measured over the study period (see FIG. 10). Mice were terminated when estimated tumour volume exceeded 1000 mm^3.

[3] = system: 4T1 murine breast tumour; test: Dosing regimen investigation: coated nanoparticles versus free gemcitabine, tumour growth; type: in vivo, mice

B1: P2X7-binding domain-coated nanoparticles containing gemcitabine: Liposome of DOPC, oleyl-gemcitabine carbamate conjugate and Maleimido-Succinyl-PEG4000-Oleate, conjugated to an anti-P2X7R single … (conjugate)
VH: EVQLLESGGGLVQPGGSLRLSCAASGFTFRNHDMGWVRQAPGKGLEWVSAISGSGGSTYYANSVKGRFTISRDNSKNTLYLQMNSLRAEDTAVYYCAEPKPMDTEFDYRSPGTLVTVSS
B1 was tested, and the “accumulation in the excised tumour” value ([1]; ex vivo bioluminescence imaging at 96 hr, FIG. 9, versus naked nanoparticles) was “higher accumulation in the excised tumour”, the accumulation in tumours ([1]; whole animal NIR imaging and ex vivo bioluminescence, 50 μL intravenous on day 0, versus naked or HEL4-coated control nanoparticles) was “greater accumulation in tumours” and the “retention in the tumour” value ([1]; whole animal NIR imaging, FIG. 7, versus non antibody-conjugated particles) was “retained in the tumour much longer”. For the same molecule, the survival [2] was “prolonged survival”, the “tumour suppression (tumour volume)” value [2] was “greater tumour suppression” and the “efficacy for inhibiting tumour growth” value ([3]; equivalent to 0.3 mg gemcitabine, intravenously twice per week (FIG. 11), versus 0.3 mg free gemcitabine) was “comparable”. The “release of cytotoxic agent” value ([3]; general statement) was “sustained release” and the toxicity ([3]; general statement, versus existing cancer treatments) was “lower toxicity”.
